Common to all, as to experiment: flow cytometry on cells
(In general: Flow cytometry measures light scatter and fluorescence of single cells or particles in a stream.)

Assay [1] addresses construct 1 cleaved at the Ala-Arg site by OmpT-AR1 (MDM2-polyArg part) (UniProt Q00987 25-125).
Assay [2] concerns the target autoinhibited-substrate-MDM2-polyArg (construct 1) (UniProt Q00987 25-125).
Assay [3] has as its target MDM2-polyArg (construct 2) (UniProt Q00987 17-125).

No end group written: not given here. *: point of attachment. BODIPY(FL) = CC1=CC(C)=[N+]2C1=Cc1ccc(CCC(=O)*)n1[B-]2(F)F

Regarding {BODIPY(FL)}-GTSFAEYWNLLSP [PMI peptide conjugated to the fluorescent dye BODIPY], the binding result in assay [1] and in assay [3] was “binds” in each case. In addition, the “fold reduction in fluorescence against construct 2” value in assay [2] is > 10 fold.

(Values after publication PMC3354639 (Chembiochem, 2012).)
